Source: US20250382383A1

Target: soluble recombinant TGF-β1 (UniProt P01137)
Assay: cell-based or functional assay

Sequence of soluble recombinant TGF-β1 (P01137 279-390 limits assumed): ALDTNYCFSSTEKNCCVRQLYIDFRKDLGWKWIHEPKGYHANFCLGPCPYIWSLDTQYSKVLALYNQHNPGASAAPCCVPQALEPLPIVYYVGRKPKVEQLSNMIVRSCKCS
Sequence of TGF-beta dominant negative receptor (TGFβ DNR) (P37173 23-194 limits assumed): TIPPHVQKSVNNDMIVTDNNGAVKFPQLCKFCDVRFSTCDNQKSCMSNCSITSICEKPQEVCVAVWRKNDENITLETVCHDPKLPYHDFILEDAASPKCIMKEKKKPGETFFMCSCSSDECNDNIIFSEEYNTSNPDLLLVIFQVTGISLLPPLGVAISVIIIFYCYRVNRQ

How did the pSMAD2 (MFI/µg protein), TGFβ +; CAR-DNR T cells; Donor 1 (MFI/µg protein) turn out when “TGF-beta dominant negative receptor (TGFβ DNR) (from UniProt P37173 23-194)” was run?
Its pSMAD2 (MFI/µg protein), TGFβ +; CAR-DNR T cells; Donor 1 (MFI/µg protein) is 2210.

What about the pSMAD2 (MFI/µg protein), TGFβ +; Tri-2A T cells; Donor 1 (MFI/µg protein) of the same substance?
The pSMAD2 (MFI/µg protein), TGFβ +; Tri-2A T cells; Donor 1 (MFI/µg protein) was 1970.

And the pSMAD2 (MFI/µg protein), TGFβ +; Tri-2A T cells; Donor 2 (MFI/µg protein)?
The pSMAD2 (MFI/µg protein), TGFβ +; Tri-2A T cells; Donor 2 (MFI/µg protein) was 2080.

What about the pSMAD2 (MFI/µg protein), TGFβ +; Tri-2A T cells; Donor 3 (MFI/µg protein) of the same substance?
Its pSMAD2 (MFI/µg protein), TGFβ +; Tri-2A T cells; Donor 3 (MFI/µg protein) is 1730.

What about the pSMAD2 (MFI/µg protein), TGFβ +; Tri-IRES T cells; Donor 1 (MFI/µg protein) of the same substance?
The pSMAD2 (MFI/µg protein), TGFβ +; Tri-IRES T cells; Donor 1 (MFI/µg protein) was 3240.

And the pSMAD2 (MFI/µg protein), TGFβ +; Tri-IRES T cells; Donor 2 (MFI/µg protein)?
Its pSMAD2 (MFI/µg protein), TGFβ +; Tri-IRES T cells; Donor 2 (MFI/µg protein) is 3400.

What about the pSMAD2 (MFI/µg protein), TGFβ +; Tri-IRES T cells; Donor 3 (MFI/µg protein) of the same substance?
The pSMAD2 (MFI/µg protein), TGFβ +; Tri-IRES T cells; Donor 3 (MFI/µg protein) was 2270.

And the pSMAD2 (MFI/µg protein), TGFβ +; Tri-mSCV T cells; Donor 1 (MFI/µg protein)?
The pSMAD2 (MFI/µg protein), TGFβ +; Tri-mSCV T cells; Donor 1 (MFI/µg protein) was 2480.

What about the pSMAD2 (MFI/µg protein), TGFβ +; Tri-mSCV T cells; Donor 2 (MFI/µg protein) of the same substance?
The pSMAD2 (MFI/µg protein), TGFβ +; Tri-mSCV T cells; Donor 2 (MFI/µg protein) was 1720.

And the pSMAD2 (MFI/µg protein), TGFβ +; Tri-mSCV T cells; Donor 3 (MFI/µg protein)?
The pSMAD2 (MFI/µg protein), TGFβ +; Tri-mSCV T cells; Donor 3 (MFI/µg protein) was 1200.

And the pSMAD2/3 (MFI CAR+), TGFb +; CAR-DNR T cells; Donor 1?
Its pSMAD2/3 (MFI CAR+), TGFb +; CAR-DNR T cells; Donor 1 is 86.9 MFI.

And the pSMAD2/3 (MFI CAR+), TGFb +; CAR-DNR T cells; Donor 2?
The pSMAD2/3 (MFI CAR+), TGFb +; CAR-DNR T cells; Donor 2 was 105 MFI.

And the pSMAD2/3 (MFI CAR+), TGFb +; CAR-DNR T cells; Donor 3?
The pSMAD2/3 (MFI CAR+), TGFb +; CAR-DNR T cells; Donor 3 was 106 MFI.

And the pSMAD2/3 (MFI CAR+), TGFb +; Tri-2A T cells; Donor 1?
The pSMAD2/3 (MFI CAR+), TGFb +; Tri-2A T cells; Donor 1 was 106 MFI.

And the pSMAD2/3 (MFI CAR+), TGFb +; Tri-2A T cells; Donor 2?
The pSMAD2/3 (MFI CAR+), TGFb +; Tri-2A T cells; Donor 2 was 208 MFI.

And the pSMAD2/3 (MFI CAR+), TGFb +; Tri-2A T cells; Donor 3?
The pSMAD2/3 (MFI CAR+), TGFb +; Tri-2A T cells; Donor 3 was 189 MFI.

And the pSMAD2/3 (MFI CAR+), TGFb +; Tri-IRES T cells; Donor 1?
Its pSMAD2/3 (MFI CAR+), TGFb +; Tri-IRES T cells; Donor 1 is 70.6 MFI.

And the pSMAD2/3 (MFI CAR+), TGFb +; Tri-IRES T cells; Donor 2?
Its pSMAD2/3 (MFI CAR+), TGFb +; Tri-IRES T cells; Donor 2 is 89.7 MFI.

What about the pSMAD2/3 (MFI CAR+), TGFb +; Tri-IRES T cells; Donor 3 of the same substance?
Its pSMAD2/3 (MFI CAR+), TGFb +; Tri-IRES T cells; Donor 3 is 89.4 MFI.

What about the pSMAD3 (MFI/µg protein), TGFβ +; CAR-DNR T cells; Donor 1 (MFI/µg protein) of the same substance?
Its pSMAD3 (MFI/µg protein), TGFβ +; CAR-DNR T cells; Donor 1 (MFI/µg protein) is 621.

What about the pSMAD3 (MFI/µg protein), TGFβ +; Tri-2A T cells; Donor 1 (MFI/µg protein) of the same substance?
Its pSMAD3 (MFI/µg protein), TGFβ +; Tri-2A T cells; Donor 1 (MFI/µg protein) is 561.

And the pSMAD3 (MFI/µg protein), TGFβ +; Tri-2A T cells; Donor 2 (MFI/µg protein)?
The pSMAD3 (MFI/µg protein), TGFβ +; Tri-2A T cells; Donor 2 (MFI/µg protein) was 488.

What about the pSMAD3 (MFI/µg protein), TGFβ +; Tri-2A T cells; Donor 3 (MFI/µg protein) of the same substance?
The pSMAD3 (MFI/µg protein), TGFβ +; Tri-2A T cells; Donor 3 (MFI/µg protein) was 405.

What about the pSMAD3 (MFI/µg protein), TGFβ +; Tri-IRES T cells; Donor 1 (MFI/µg protein) of the same substance?
The pSMAD3 (MFI/µg protein), TGFβ +; Tri-IRES T cells; Donor 1 (MFI/µg protein) was 942.

And the pSMAD3 (MFI/µg protein), TGFβ +; Tri-IRES T cells; Donor 2 (MFI/µg protein)?
The pSMAD3 (MFI/µg protein), TGFβ +; Tri-IRES T cells; Donor 2 (MFI/µg protein) was 788.

And the pSMAD3 (MFI/µg protein), TGFβ +; Tri-IRES T cells; Donor 3 (MFI/µg protein)?
The pSMAD3 (MFI/µg protein), TGFβ +; Tri-IRES T cells; Donor 3 (MFI/µg protein) was 643.

What about the pSMAD3 (MFI/µg protein), TGFβ +; Tri-mSCV T cells; Donor 1 (MFI/µg protein) of the same substance?
Its pSMAD3 (MFI/µg protein), TGFβ +; Tri-mSCV T cells; Donor 1 (MFI/µg protein) is 660.

And the pSMAD3 (MFI/µg protein), TGFβ +; Tri-mSCV T cells; Donor 2 (MFI/µg protein)?
The pSMAD3 (MFI/µg protein), TGFβ +; Tri-mSCV T cells; Donor 2 (MFI/µg protein) was 460.

What about the pSMAD3 (MFI/µg protein), TGFβ +; Tri-mSCV T cells; Donor 3 (MFI/µg protein) of the same substance?
Its pSMAD3 (MFI/µg protein), TGFβ +; Tri-mSCV T cells; Donor 3 (MFI/µg protein) is 377.
